The supplement of paper PMC10126150
± gives the standard deviation of the averaged measurements.
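Also: ATP exposure 15 min at 22 °C before imaging.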

Each sequence was assayed on ATP (assay: switch fluorescence ratio, 500 uM ATP over buffer (Cy3 cluster intensity, sum of 5 cycles each) (fold (ratio)); higher = stronger signal-on switching upon ATP binding; sequences stand for … in TCGTCGGCAGCGTCAGATGTGTATAAGAGACAGTTTTTTTTTTTTTTTTTTTTTTTTT…TC). Details: aptamer strand: ATP DNA aptamer (quencher-CACCTGGGGGAGTATTGCGGAGGAAGG + anchor), 100 nM annealed; ATP concentration: 500 uM.
Method in brief: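 Cy3-labelled switching-strand clusters on a modified Illumina MiSeq flow-cell were annealed to 100 nM quencher-labelled ATP aptamer, imaged in selection buffer, then imaged after 15 min with 500 uM ATP at 22 °C. Five buffer/ATP cycles ran, with NaOH stripping and re-annealing between them. The fluorescence ratio is summed target-cycle over summed buffer-cycle Cy3 intensity per cluster, averaged per switch-domain sequence. Clusters outside 100-1000 RFU were excluded.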
TTAGGACTT gave a switch fluorescence ratio of 1.02 ± 0.073. With TTAGGAGGGT the switch fluorescence ratio was 0.965 ± 0.037. With TTAGGATAGT the switch fluorescence ratio was 0.998 ± 0.027. With TTAGGATCGC the switch fluorescence ratio was 1.02 ± 0.057. For TTAGGATGGC, the switch fluorescence ratio was 1.2 ± 0.28. TTAGGATGTT gave a switch fluorescence ratio of 1.0069 ± 0.00069. Sequence TTAGGCCGGG has a switch fluorescence ratio of 0.998 ± 0.041. TTAGGCGTTC gave a switch fluorescence ratio of 0.9892 ± 0.0096. TTAGGCTTGT gave a switch fluorescence ratio of 0.996 ± 0.02. TTAGGGACGT showed a switch fluorescence ratio of 1.01 ± 0.026. TTAGGGATTG was tested, and the switch fluorescence ratio was 1 ± 0.03. TTAGGGCATT showed a switch fluorescence ratio of 1.11 ± 0.2. TTAGGGGAGC showed a switch fluorescence ratio of 0.976 ± 0.021. TTAGGGGAGT gave a switch fluorescence ratio of 1.02 ± 0.066. With TTAGGGGCTT the switch fluorescence ratio was 1.02 ± 0.033. TTAGGGGGCC was tested, and the switch fluorescence ratio was 1.07 ± 0.035. In the case of TTAGGGGGT, the switch fluorescence ratio is reported as 0.976 ± 0.059. TTAGGGGTAT was tested, and the switch fluorescence ratio was 0.996 ± 0.05. TTAGGGGTGT gave a switch fluorescence ratio of 1.01 ± 0.022. With TTAGGGTGTA the switch fluorescence ratio was 1.01 ± 0.046. TTAGGGTTGG gave a switch fluorescence ratio of 0.99 ± 0.034. TTAGGTGTCC gave a switch fluorescence ratio of 1.08 ± 0.057. Work on TTAGGTGTCT yielded a switch fluorescence ratio of 0.998 ± 0.071. Sequence TTAGGTTACT has a switch fluorescence ratio of 1.028 ± 0.0039. TTAGGTTTGG was tested, and the switch fluorescence ratio was 1.05 ± 0.15. In the case of TTAGTAAAGA, the switch fluorescence ratio is reported as 1.02 ± 0.013. TTAGTAATGT was tested, and the switch fluorescence ratio was 1.06 ± 0.072. For TTAGTAGCTA, the switch fluorescence ratio was 1.01 ± 0.013. For TTAGTATATA, the switch fluorescence ratio was 0.9946 ± 0.0059. In the case of TTAGTATCGA, the switch fluorescence ratio is reported as 0.966 ± 0.029. TTAGTATTTT gave a switch fluorescence ratio of 1.02 ± 0.087. Sequence TTAGTCAATT has a switch fluorescence ratio of 0.97 ± 0.0044. For TTAGTCAGGG, the switch fluorescence ratio was 1.02 ± 0.024. In the case of TTAGTCCCCG, the switch fluorescence ratio is reported as 1.02 ± 0.038. TTAGTGAAGT gave a switch fluorescence ratio of 1 ± 0.011. In the case of TTAGTGATAC, the switch fluorescence ratio is reported as 2.49 ± 0.42. For TTAGTGTACT, the switch fluorescence ratio was 1.07 ± 0.038. Work on TTAGTTAAAT yielded a switch fluorescence ratio of 1.002 ± 0.0013. For TTAGTTAGTT, the switch fluorescence ratio was 0.98 ± 0.016. TTAGTTGA gave a switch fluorescence ratio of 0.999 ± 0.015. TTAGTTGAGA gave a switch fluorescence ratio of 1 ± 0.045. For TTAGTTGGTA, the switch fluorescence ratio was 0.987 ± 0.001. In the case of TTAGTTTATC, the switch fluorescence ratio is reported as 1.02 ± 0.027. Work on TTAGTTTCTG yielded a switch fluorescence ratio of 0.984 ± 0.046. In the case of TTAGTTTTCG, the switch fluorescence ratio is reported as 1.01 ± 0.02. TTATAAATAC showed a switch fluorescence ratio of 1.91 ± 0.7. With TTATAAGACT the switch fluorescence ratio was 1.044 ± 0.0064. In the case of TTATAAGTGG, the switch fluorescence ratio is reported as 0.9907 ± 0.0072. With TTATAATAGG the switch fluorescence ratio was 1.02 ± 0.032. TTATAATATG showed a switch fluorescence ratio of 0.9846 ± 0.0035. Sequence TTATAATGCC has a switch fluorescence ratio of 0.997 ± 0.078. TTATACAGTG showed a switch fluorescence ratio of 1 ± 0.031. In the case of TTATACATGT, the switch fluorescence ratio is reported as 0.973 ± 0.055. TTATACCAAG gave a switch fluorescence ratio of 1.03 ± 0.023. TTATAGATGG gave a switch fluorescence ratio of 0.971 ± 0.077. TTATAGGGCC gave a switch fluorescence ratio of 1 ± 0.025. TTATAGTATG gave a switch fluorescence ratio of 0.99 ± 0.043. TTATAGTATT gave a switch fluorescence ratio of 0.957 ± 0.044. TTATAGTGTT was tested, and the switch fluorescence ratio was 0.994 ± 0.012. Sequence TTATATATCA has a switch fluorescence ratio of 1.01 ± 0.013. In the case of TTATATCCTG, the switch fluorescence ratio is reported as 0.974 ± 0.038. With TTATATTGAT the switch fluorescence ratio was 1.017 ± 0.0029. Work on TTATATTTGA yielded a switch fluorescence ratio of 0.98 ± 0.015. In the case of TTATCACACT, the switch fluorescence ratio is reported as 1.02 ± 0.043. Sequence TTATCAGGTT has a switch fluorescence ratio of 1 ± 0.031. Work on TTATCAGTTT yielded a switch fluorescence ratio of 1.03 ± 0.062. With TTATCATACG the switch fluorescence ratio was 1.03 ± 0.024. TTATCATCTT gave a switch fluorescence ratio of 1.01 ± 0.032. Sequence TTATCCACGA has a switch fluorescence ratio of 1.03 ± 0.033. TTATCCAGGA showed a switch fluorescence ratio of 1.006 ± 0.0093. TTATCCGAGA showed a switch fluorescence ratio of 1.04 ± 0.019. TTATCGGCGC was tested, and the switch fluorescence ratio was 0.999 ± 0.014. TTATCGGGCT was tested, and the switch fluorescence ratio was 1.02 ± 0.023. TTATCGGGGT gave a switch fluorescence ratio of 1.019 ± 0.008. TTATCGGTCT gave a switch fluorescence ratio of 0.9849 ± 0.0065. In the case of TTATCGGTTG, the switch fluorescence ratio is reported as 1.03 ± 0.043. Work on TTATCGTGTC yielded a switch fluorescence ratio of 1.02 ± 0.023. With TTATCTAGGA the switch fluorescence ratio was 1 ± 0.028. TTATGAAGTT showed a switch fluorescence ratio of 0.996 ± 0.014. With TTATGAATAT the switch fluorescence ratio was 0.9824 ± 0.005. In the case of TTATGAATGC, the switch fluorescence ratio is reported as 0.999 ± 0.055. For TTATGACAGG, the switch fluorescence ratio was 0.993 ± 0.022. In the case of TTATGAGATA, the switch fluorescence ratio is reported as 0.996 ± 0.035. With TTATGAGGAC the switch fluorescence ratio was 1.03 ± 0.056. TTATGAGGCA gave a switch fluorescence ratio of 0.978 ± 0.026.
